Assay results reported in article PMC8786824 (Scientific Reports, 2022).

Target: MERS-CoV RBD (amino acids 367 to 588) of the spike glycoprotein (MERS-CoV, UniProt K9N5Q8)
Test: crystal structure
Conditions: both partners purified

Sequence of MERS-CoV RBD (amino acids 367 to 588) of the spike glycoprotein (K9N5Q8 367-588): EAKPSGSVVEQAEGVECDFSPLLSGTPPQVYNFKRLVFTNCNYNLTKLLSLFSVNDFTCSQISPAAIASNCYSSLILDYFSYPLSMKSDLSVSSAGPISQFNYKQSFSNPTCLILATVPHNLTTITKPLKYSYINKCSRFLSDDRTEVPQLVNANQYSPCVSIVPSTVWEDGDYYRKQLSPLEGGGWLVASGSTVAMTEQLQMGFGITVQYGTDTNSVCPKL

B1: KNIH90-F1 antigen-binding fragment (Fab) (Fab, V domains shown)
VH: QVQLVQSGAEVKRPGSSVKVSCKTSGGTFNNNAINWVRQAPGQGLEWMGGIIPFFGIAKYAQKFQGRVTITADESTSTAYMELSSLRSEDTAVYYCARDLPRESSYGSGSYYTHYYAMDVWGQGTTVTVSS
VL: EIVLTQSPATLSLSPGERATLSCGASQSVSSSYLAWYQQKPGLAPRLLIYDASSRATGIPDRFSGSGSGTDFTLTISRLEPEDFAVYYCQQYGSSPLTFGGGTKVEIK
notes: also called KNIH90-F1 Fab; nAb KNIH90-F1
**Q.** Does B1 bind?
**A.** binds
